Target: Gal4-ARNT-ΔTAD (PL283), Gal DNA-binding domain fusion of ARNT deleted for the transactivation domain
Experiment: two-hybrid

Substance	fold increase of luciferase activity with 1nM TCDD
full-length AHRdbd, 'fish' of the mammalian two-hybrid (pTgTAHRdbd, PL1548) (from UniProt P30561 10-848) (natural protein)	10 fold
wild-type AHR, 'fish' of the mammalian two-hybrid (pTgTAHRs, PL1550) (from UniProt P30561 10-848) (natural protein)	3 fold
